US20230025280A1, “PH RESPONSIVE COMPOSITIONS, FORMULATIONS, AND METHODS OF IMAGING A TUMOR” (ONCONANO MEDICINE, INC, priority 2019, published 2023)
Values joined by “and” are separate entries in the source; they are usually repeats but may differ in a detail not shown here. Equal values may be shown once.

Test: Phase 1 (1a/1b) pharmacokinetics: plasma concentrations after single IV dose (validated direct fluorescence reader assay), noncompartmental analysis
Assay type: in vivo, human
Conditions: 1.2 mg/kg
Text: Phase 1 is a single-Principal Investigator, non-randomized, open-label, single-arm, cross-sectional study to evaluate the safety, PK profile, and imaging feasibility of Compound 1 in patients with solid cancers who require surgical excision. The main purpose of this study was to investigate the safety, PK, and feasibility of Compound 1 as an intra-operative optical imaging agent to detect tumors and metastatic lymph nodes in solid cancers. The study was intended to investigate the optimal dose range of Compound 1 for an adequate TBR and CNR of fluorescence obtained intraoperatively at 24 (±8) hours post dosing and with ex vivo specimens using ICG compatible cameras and imaging devices.
Phase 1 enrolled 30 patients with solid cancers (HNSCC, breast cancer, esophageal cancer, or colorectal cancer) who have a biopsy-confirmed diagnosis of respective tumor types and are scheduled to undergo surgical resection of the tumor. The study design included a standard 3+3 design for the dose-escalation portion (Phase 1a; N=18 maximum) followed by a dose-expansion portion (Phase 1b; N=15). All patients received a single I.V. dose of Compound 1, followed by routine surgery approximately 24 hours after infusion of Compound 1.
Phase 1a was a dose-finding study performed in 5 cohorts of 3 patients each. The dose levels evaluated were […], and 1.2 mg/kg, in this sequence. Inter-cohort dose escalation took place after the last patient in the previous cohort completed the Day 10 safety assessment. Safety, PK, and imaging feasibility were evaluated in both the Phase 1a and 1b portions of the study. Patient safety is assessed during the study and for up to 10 days post-dose.
Study design: Single Compound 1 IV dose was administered as a 1-5 minute IV infusion to patients in five cohorts (0.1, 0.3, 0.5, 0.8, and 1.2 mg/kg) with three patients per cohort in Phase 1a and 15 patients at a dose of 1.2 mg/kg in Phase 1b. Patient demographic information including tumor types is presented in Table 4 and 5 for Phase 1a and Table 5 for Phase 1b. Intertek Pharmaceutical Services (San Diego, Calif.) determined Compound 1 plasma concentrations using a validated direct fluorescence reader assay. Pacific BioDevelopment (Davis, Calif.) performed the PK analysis.
Sample collection: Blood samples were collected prior to infusion and at 10 minutes and 0.5, 1, 3, 8, 24, 48, 72, and 240 hours after infusion.
Analysis: Plasma concentration versus time profiles were generated for each patient. Pharmacokinetic parameters were estimated using Phoenix WinNonlin (version 8.0). According to SOP, concentrations reported as BQL were set to 0 except for the 0.5 h sample for subject #ON1102, which was set to LLOQ/2 ([…] value used in parameter calculations) and the 24 and 48 h samples.
If the coefficient of determination for the terminal slope estimation was less than 0.8, T1/2 was not reported (NR). AUC extrapolated to infinity is not reported for any data set because in all cases the % extrapolated AUC was greater than 20% and thus the AUCinf estimate would not be reliable. The concentration at 10 minutes, the first time point measured (C10m), was also reported for each patient.
The area under the plasma concentration versus time curves from dosing to the last time point with a measurable concentration (AUClast) was estimated by the linear trapezoid method. The last three or more time points were used to estimate the elimination rate constant (λz) which was used to estimate the terminal-phase half-life (T1/2) and AUC from zero to infinity (AUCINF) from the following equations: […]

PEO90-140-b-P(DBA60-150-r-ICG0-3-r-AMA0-3) [Compound 1]
Differences in pharmacokinetic parameters based on tumor type (Phase 1a and Phase 1b): no apparent differences | T1/2 (ALL cancer types, Mean, N 16): 44.5 h | AUC0-24 hr (ALL cancer types, Mean, N 18): 615 µg·h/mL | AUCall (ALL cancer types, Mean, N 18): 1670 µg·h/mL | AUClast (ALL cancer types, Mean, N 18): 1100 µg·h/mL | C10 m (ALL cancer types, Mean, N 18): 33.0 µg/mL | Cmax (ALL cancer types, Mean, N 18): 34300 ng/mL | Tmax (ALL cancer types, Mean, N 18): 0.834 h | T1/2 (ALL cancer types, Median, N 16): 40.5 h | AUC0-24 hr (ALL cancer types, Median, N 18): 615 µg·h/mL | AUCall (ALL cancer types, Median, N 18): 1170 µg·h/mL | AUClast (ALL cancer types, Median, N 18): 997 µg·h/mL | C10 m (ALL cancer types, Median, N 18): 32.4 µg/mL | Cmax (ALL cancer types, Median, N 18): 33600 ng/mL | Tmax (ALL cancer types, Median, N 18): 0.500 h | AUC0-24 hr (BC, Mean, N 5): 592 µg·h/mL | AUCall (BC, Mean, N 5): 1730 µg·h/mL | AUClast (BC, Mean, N 5): 1150 µg·h/mL | C10 m (BC, Mean, N 5): 31.2 µg/mL | Cmax (BC, Mean, N 5): 32900 ng/mL | T1/2 (BC, Mean, N 5): 51.0 h | Tmax (BC, Mean, N 5): 0.634 h | AUC0-24 hr (BC, Median, N 5): 574 µg·h/mL | AUCall (BC, Median, N 5): 1170 µg·h/mL | AUClast (BC, Median, N 5): 1020 µg·h/mL | C10 m (BC, Median, N 5): 33.0 µg/mL | Cmax (BC, Median, N 5): 33000 ng/mL | T1/2 (BC, Median, N 5): 45.5 h | Tmax (BC, Median, N 5): 0.500 h | AUC0-24 hr (BC, individual subjects): 630 µg·h/mL and 693 µg·h/mL and 574 µg·h/mL and 562 µg·h/mL and 502 µg·h/mL | AUCall (BC, individual subjects): 1170 µg·h/mL and 3190 µg·h/mL and 1020 µg·h/mL and 1120 µg·h/mL and 2120 µg·h/mL | AUClast (BC, individual subjects): 1020 µg·h/mL and 1740 µg·h/mL and 891 µg·h/mL and 968 µg·h/mL and 1110 µg·h/mL | C10 m (BC, individual subjects): 36.5 μg/mL and 33.0 μg/mL (2×) and 28.0 μg/mL and 25.5 μg/mL | Cmax (BC, individual subjects): 37700 ng/mL and 34300 ng/mL and 33000 ng/mL and 32000 ng/mL and 27600 ng/mL | T1/2 (BC, individual subjects): 34.5 h and 83.0 h and 30.6 h and 45.5 h and 61.4 h | Tmax (BC, individual subjects): 1.00 h and 0.170 h and 0.500 h | AUC0-24 hr (CRC, Mean, N 3): 677 µg·h/mL | AUCall (CRC, Mean, N 3): 1790 µg·h/mL | AUClast (CRC, Mean, N 3): 1150 µg·h/mL | C10 m (CRC, Mean, N 3): 35.5 µg/mL | Cmax (CRC, Mean, N 3): 36400 ng/mL | T1/2 (CRC, Mean, N 3): 46.3 h | Tmax (CRC, Mean, N 3): 0.557 h | AUC0-24 hr (CRC, Median, N 3): 684 µg·h/mL | AUCall (CRC, Median, N 3): 1090 µg·h/mL | AUClast (CRC, Median, N 3): 971 µg·h/mL | C10 m (CRC, Median, N 3): 35.8 µg/mL | Cmax (CRC, Median, N 3): 36400 ng/mL | T1/2 (CRC, Median, N 3): 33.4 h | Tmax (CRC, Median, N 3): 0.500 h | AUC0-24 hr (CRC, individual subjects): 721 µg·h/mL and 684 µg·h/mL and 626 µg·h/mL | AUCall (CRC, individual subjects): 3350 µg·h/mL and 939 µg·h/mL and 1090 µg·h/mL | AUClast (CRC, individual subjects): 1780 µg·h/mL and 684 µg·h/mL and 971 µg·h/mL | C10 m (CRC, individual subjects): 38.6 µg/mL and 32.1 µg/mL and 35.8 µg/mL | Cmax (CRC, individual subjects): 38600 ng/mL and 34100 ng/mL and 36400 ng/mL | T1/2 (CRC, individual subjects): 77.9 h and 33.4 h and 27.7 h | Tmax (CRC, individual subjects): 0.170 h and 1.00 h and 0.500 h | AUC0-24 hr (EC, Mean, N 3): 659 µg·h/mL | AUCall (EC, Mean, N 3): 1570 µg·h/mL | AUClast (EC, Mean, N 3): 1170 µg·h/mL | C10 m (EC, Mean, N 3): 34.7 µg/mL | Cmax (EC, Mean, N 3): 35800 ng/mL | T1/2 (EC, Mean, N 3): 37.1 h | Tmax (EC, Mean, N 3): 0.723 h | AUC0-24 hr (EC, Median, N 3): 606 µg·h/mL | AUCall (EC, Median, N 3): 1460 µg·h/mL | AUClast (EC, Median, N 3): 1270 µg·h/mL | C10 m (EC, Median, N 3): 32.6 µg/mL | Cmax (EC, Median, N 3): 32600 ng/mL | T1/2 (EC, Median, N 3): 34.4 h | Tmax (EC, Median, N 3): 1.00 h | AUC0-24 hr (EC, individual subjects): 606 µg·h/mL and 787 µg·h/mL and 585 µg·h/mL | AUCall (EC, individual subjects): 2150 µg·h/mL and 1460 µg·h/mL and 1100 µg·h/mL | AUClast (EC, individual subjects): 1280 µg·h/mL and 1270 µg·h/mL and 961 µg·h/mL | C10 m (EC, individual subjects): 31.4 µg/mL and 40.0 µg/mL and 32.6 µg/mL | Cmax (EC, individual subjects): 32600 ng/mL and 42200 ng/mL | T1/2 (EC, individual subjects): 43.3 h and 34.4 h and 33.6 h | Tmax (EC, individual subjects): 1.00 h and 0.170 h | T1/2 (HNSCC, Mean, N 5): 41.4 h | AUC0-24 hr (HNSCC, Mean, N 7): 585 µg·h/mL | AUCall (HNSCC, Mean, N 7): 1620 µg·h/mL | AUClast (HNSCC, Mean, N 7): 1020 µg·h/mL | C10 m (HNSCC, Mean, N 7): 32.5 µg/mL
